# Results as given in IntAct's records for PubMed 16325581.
# B1: SH3 domain-binding protein 4 (Homo sapiens), Q9P0V3 (parent)
# chain: MAAQRIRAANSNGLPRCKSEGTLIDLSEGFSETSFNDIKVPSPSALLVDNPTPFGNAKEVIAIKDYCPTNFTTLKFSKGDHLYVLDTSGGEWWYAHNTTEMGYIPSSYVQPLNYRNSTLSDSGMIDNLPDSPDEVAKELELLGGWTDDKKVPGRMYSNNPFWNGVQTNPFLNGNVPVMPSLDELNPKSTVDLLLFDAGTSSFTESSSATTNSTGNIFDELPVTNGLHAEPPVRRDNPFFRSKRSYSLSELSVLQAKSDAPTSSSFFTGLKSPAPEQFQSREDFRTAWLNHRKLARSCHDLDLLGQSPGWGQTQAVETNIVCKLDSSGGAVQLPDTSISIHVPEGHVAPGETQQISMKALLDPPLELNSDRSCSISPVLEVKLSNLEVKTSIILEMKVSAEIKNDLFSKSTVGLQCLRSDSKEGPYVSVPLNCSCGDTVQAQLHNLEPCMYVAVVAHGPSILYPSTVWDFINKKVTVGLYGPKHIHPSFKTVVTIFGHDCAPKTLLVSEVTRQAPNPAPVALQLWGKHQFVLSRPQDLKVCMFSNMTNYEVKASEQAKVVRGFQLKLGKVSRLIFPITSQNPNELSDFTLRVQVKDDQEAILTQFCVQTPQPPPKSAIKPSGQRRFLKKNEVGKIILSPFATTTKYPTFQDRPVSSLKFGKLLKTVVRQNKNHYLLEYKKGDGIALLSEERVRLRGQLWTKEWYIGYYQGRVGLVHTKNVLVVGRARPSLCSGPELSTSVLLEQILRPCKFLTYIYASVRTLLMENISSWRSFADALGYVNLPLTFFCRAELDSEPERVASVLEKLKEDCNNTENKERKSFQKELVMALLKMDCQGLVVRLIQDFVLLTTAVEVAQRWRELAEKLAKVSKQQMDAYESPHRDRNGVVDSEAMWKPAYDFLLTWSHQIGDSYRDVIQELHLGLDKMKNPITKRWKHLTGTLILVNSLDVLRAAAFSPADQDDFVI
# B2: SH3 domain-binding protein 4 (Homo sapiens), Q9P0V3 (parent)
# chain: B1 chain
# partner: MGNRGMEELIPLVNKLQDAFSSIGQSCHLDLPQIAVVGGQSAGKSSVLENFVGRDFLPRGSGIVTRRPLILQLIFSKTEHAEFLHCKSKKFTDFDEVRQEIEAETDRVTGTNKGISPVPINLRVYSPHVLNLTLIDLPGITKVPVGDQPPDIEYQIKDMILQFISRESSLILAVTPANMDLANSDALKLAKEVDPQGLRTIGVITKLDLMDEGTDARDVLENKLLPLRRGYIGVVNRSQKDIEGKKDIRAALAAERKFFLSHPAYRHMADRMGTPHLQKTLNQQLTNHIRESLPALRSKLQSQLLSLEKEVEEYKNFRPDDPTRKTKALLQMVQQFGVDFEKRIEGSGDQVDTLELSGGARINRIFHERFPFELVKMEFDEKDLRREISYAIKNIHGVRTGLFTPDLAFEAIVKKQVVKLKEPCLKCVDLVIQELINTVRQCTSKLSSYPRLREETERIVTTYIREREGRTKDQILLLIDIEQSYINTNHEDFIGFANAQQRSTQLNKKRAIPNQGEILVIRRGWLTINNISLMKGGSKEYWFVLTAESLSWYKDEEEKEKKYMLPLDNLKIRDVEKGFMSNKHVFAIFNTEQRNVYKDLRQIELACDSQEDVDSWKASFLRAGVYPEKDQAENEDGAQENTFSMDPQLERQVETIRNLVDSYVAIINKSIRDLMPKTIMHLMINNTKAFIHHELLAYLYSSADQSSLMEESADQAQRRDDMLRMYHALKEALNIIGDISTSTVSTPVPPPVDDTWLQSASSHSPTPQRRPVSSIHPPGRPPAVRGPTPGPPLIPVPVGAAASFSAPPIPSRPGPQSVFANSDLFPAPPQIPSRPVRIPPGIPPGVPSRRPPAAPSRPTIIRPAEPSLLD
# Variants of: B1
# Conditions: with tfr1_human TFRC
row,effect of a mutation on the interaction,Variant
1,disrupting interaction,W92A

# Variants of: B2
# Conditions: with dyn2_human DNM2, P50570
row,effect of a mutation on the interaction,Variant
1,disrupting interaction,W92A
